The values below are quoted from earlier work in US8759613B1, “Method of producing a lunasin polypeptide in plants” (University of Louisville Research Foundation, Inc., priority 2009, dated 2014).

For the data set the following is noted: oral administration; digestion.

For “lunasin: polypeptide of 43-44 amino acids from soybean with a C-terminal end of nine consecutive aspartic acid residues (MSKWQHQQDSCRKQLQGVNLTPCEKHIMEKIQGRGDDDDDDDDD; Glycine max)”, the orally-administered lunasin degraded is on record as at most 95%.
